{"source": "paper PMC7145662", "about": "“Crystal structure of the EcoKMcrA N-terminal domain (NEco): recognition of modified cytosine bases without flipping”", "molecules": {"B1": {"name": "30 bp CTGG/C5mCAG (T:A pair) (dsDNA)", "DNA 1": "AGACCCACGCTCACTGGTTCCAGATTTATC", "DNA 2": "GATAAATCTGGAACCAGTGAGCGTGGGTCT", "modifications": "5mC in one strand"}, "B2": {"name": "30 bp C5hmCGG fully hydroxymethylated (dsDNA)", "DNA 1": "B1 DNA 1 with T15C", "DNA 2": "B1 DNA 2 with A16G", "modifications": "5hmC at inner C of CCGG, both strands"}, "B3": {"name": "30 bp CCGG non-methylated (dsDNA)", "DNA 1": "B1 DNA 1 with T15C", "DNA 2": "B1 DNA 2 with A16G"}, "B4": {"name": "30 bp C5mCGG fully methylated (dsDNA)", "DNA 1": "B1 DNA 1 with T15C", "DNA 2": "B1 DNA 2 with A16G", "modifications": "5mC at inner C of CCGG, both strands"}, "B5": {"name": "30 bp CTGG/C5mCGG (T:G mismatch) (dsDNA)", "DNA 1": "B1 DNA 1", "DNA 2": "B1 DNA 2 with A16G", "modifications": "5mC in one strand"}, "B6": {"name": "30 bp CCGG hemi-methylated (dsDNA)", "DNA 1": "B1 DNA 1 with T15C", "DNA 2": "B1 DNA 2 with A16G", "modifications": "5mC at inner C of CCGG, one strand"}}, "key": {"[1]": {"biological_target": "T1, NEco (EcoKMcrA N-terminal domain) (Escherichia coli K) (UniProt P24200)", "T1 sequence": "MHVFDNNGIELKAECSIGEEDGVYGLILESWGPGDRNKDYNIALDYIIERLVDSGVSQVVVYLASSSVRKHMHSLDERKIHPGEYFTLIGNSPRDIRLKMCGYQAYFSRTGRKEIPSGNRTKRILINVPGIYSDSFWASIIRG", "assay": "competition", "details": "5mC in CpG, both strands; EMSA: 10 nM 33P/32P 30 bp duplex, 5-2000 nM NEco; competition: 10 nM labeled C5mCGG, 10 nM NEco, 3-3000 nM unlabeled competitor; buffer, pH and temperature not …"}, "[2]": {"biological_target": "T2, NEco (EcoKMcrA N-terminal domain) (Escherichia coli K, UniProt P24200 1-143)", "T2 sequence": "T1 sequence", "assay": "competition; EMSA: 10 nM 33P/32P 30 bp duplex, 5-2000 nM NEco; competition: 10 nM labeled C5mCGG, 10 nM NEco, 3-3000 nM unlabeled competitor; buffer, pH and temperature not", "details": "protein: recombinant"}, "[3]": {"biological_target": "T2, NEco (EcoKMcrA N-terminal domain)", "assay": "competition; EMSA: 10 nM 33P/32P 30 bp duplex, 5-2000 nM NEco; competition: 10 nM labeled C5mCGG, 10 nM NEco, 3-3000 nM unlabeled competitor; buffer, pH and temperature not", "details": "protein: recombinant", "remark": "listed apart in the source"}, "NEco W31F": {"biological_target": "T3, NEco W31F (Escherichia coli K, UniProt P24200 1-143, W31F)", "T3 sequence": "T1 sequence with W31F", "assay": "EMSA; EMSA: 10 nM 33P/32P 30 bp duplex, 5-2000 nM NEco; competition: 10 nM labeled C5mCGG, 10 nM NEco, 3-3000 nM unlabeled competitor; buffer, pH and temperature not", "details": "protein: recombinant"}, "NEco W31S": {"biological_target": "T4, NEco W31S (Escherichia coli K, UniProt P24200 1-143, W31S)", "T4 sequence": "T1 sequence with W31S", "assay": "EMSA; EMSA: 10 nM 33P/32P 30 bp duplex, 5-2000 nM NEco; competition: 10 nM labeled C5mCGG, 10 nM NEco, 3-3000 nM unlabeled competitor; buffer, pH and temperature not", "details": "protein: recombinant"}, "NEco S30A": {"biological_target": "T5, NEco S30A (Escherichia coli K, UniProt P24200 1-143, S30A)", "T5 sequence": "T1 sequence with S30A", "assay": "EMSA; EMSA: 10 nM 33P/32P 30 bp duplex, 5-2000 nM NEco; competition: 10 nM labeled C5mCGG, 10 nM NEco, 3-3000 nM unlabeled competitor; buffer, pH and temperature not", "details": "protein: recombinant"}, "NEco W31Y": {"biological_target": "T6, NEco W31Y (Escherichia coli K, UniProt P24200 1-143, W31Y)", "T6 sequence": "T1 sequence with W31Y", "assay": "EMSA; EMSA: 10 nM 33P/32P 30 bp duplex, 5-2000 nM NEco; competition: 10 nM labeled C5mCGG, 10 nM NEco, 3-3000 nM unlabeled competitor; buffer, pH and temperature not", "details": "protein: recombinant"}, "NEco W31A [4]": {"biological_target": "T7, NEco W31A (Escherichia coli K, UniProt P24200 1-143, W31A)", "T7 sequence": "T1 sequence with W31A", "assay": "EMSA; EMSA: 10 nM 33P/32P 30 bp duplex, 5-2000 nM NEco; competition: 10 nM labeled C5mCGG, 10 nM NEco, 3-3000 nM unlabeled competitor; buffer, pH and temperature not", "details": "protein: recombinant"}, "NEco W31V": {"biological_target": "T8, NEco W31V (Escherichia coli K, UniProt P24200 1-143, W31V)", "T8 sequence": "T1 sequence with W31V", "assay": "EMSA; EMSA: 10 nM 33P/32P 30 bp duplex, 5-2000 nM NEco; competition: 10 nM labeled C5mCGG, 10 nM NEco, 3-3000 nM unlabeled competitor; buffer, pH and temperature not", "details": "protein: recombinant"}, "NEco S30V": {"biological_target": "T9, NEco S30V (Escherichia coli K, UniProt P24200 1-143, S30V)", "T9 sequence": "T1 sequence with S30V", "assay": "EMSA; EMSA: 10 nM 33P/32P 30 bp duplex, 5-2000 nM NEco; competition: 10 nM labeled C5mCGG, 10 nM NEco, 3-3000 nM unlabeled competitor; buffer, pH and temperature not", "details": "protein: recombinant"}, "NEco W31I": {"biological_target": "T10, NEco W31I (Escherichia coli K, UniProt P24200 1-143, W31I)", "T10 sequence": "T1 sequence with W31I", "assay": "EMSA; EMSA: 10 nM 33P/32P 30 bp duplex, 5-2000 nM NEco; competition: 10 nM labeled C5mCGG, 10 nM NEco, 3-3000 nM unlabeled competitor; buffer, pH and temperature not", "details": "protein: recombinant"}, "NEco S30L": {"biological_target": "T11, NEco S30L (Escherichia coli K, UniProt P24200 1-143, S30L)", "T11 sequence": "T1 sequence with S30L", "assay": "EMSA; EMSA: 10 nM 33P/32P 30 bp duplex, 5-2000 nM NEco; competition: 10 nM labeled C5mCGG, 10 nM NEco, 3-3000 nM unlabeled competitor; buffer, pH and temperature not", "details": "protein: recombinant"}, "NEco W31L": {"biological_target": "T12, NEco W31L (Escherichia coli K, UniProt P24200 1-143, W31L)", "T12 sequence": "T1 sequence with W31L", "assay": "EMSA; EMSA: 10 nM 33P/32P 30 bp duplex, 5-2000 nM NEco; competition: 10 nM labeled C5mCGG, 10 nM NEco, 3-3000 nM unlabeled competitor; buffer, pH and temperature not", "details": "protein: recombinant"}, "NEco N119A": {"biological_target": "T13, NEco N119A (Escherichia coli K, UniProt P24200 1-143, N119A)", "T13 sequence": "T1 sequence with N119A", "assay": "EMSA; EMSA: 10 nM 33P/32P 30 bp duplex, 5-2000 nM NEco; competition: 10 nM labeled C5mCGG, 10 nM NEco, 3-3000 nM unlabeled competitor; buffer, pH and temperature not", "details": "protein: recombinant"}, "NEco W31H": {"biological_target": "T14, NEco W31H (Escherichia coli K, UniProt P24200 1-143, W31H)", "T14 sequence": "T1 sequence with W31H", "assay": "competition; EMSA: 10 nM 33P/32P 30 bp duplex, 5-2000 nM NEco; competition: 10 nM labeled C5mCGG, 10 nM NEco, 3-3000 nM unlabeled competitor; buffer, pH and temperature not", "details": "protein: recombinant"}, "NEco W31A [5]": {"biological_target": "T7, NEco W31A", "assay": "EMSA; discrete complexes, unlike wt; EMSA: 10 nM 33P/32P 30 bp duplex, 5-2000 nM NEco; competition: 10 nM labeled C5mCGG, 10 nM NEco, 3-3000 nM unlabeled competitor; buffer, pH and temperature not", "details": "protein: recombinant"}}, "note": "Where a chain is given by its changes, count along the chain named.", "data": [{"molecule": "AGACCCACGCTCAGCGCTTCCAGATTTATC (double strand) [30 bp G5mCGC]", "values": [{"measurement": "binding signal (fold lower affinity than G5mCGG/C5mCGC)", "setting": "[1]", "result": "> 25"}]}, {"molecule": "AGACCCACGCTCAGCGGTTCCAGATTTATC (double strand) [30 bp G5mCGG/C5mCGC]", "values": [{"measurement": "binding signal (fold lower affinity than C5mCGG)", "setting": "[1]", "result": 100}]}, {"molecule": "B1", "values": [{"measurement": "binding signal", "setting": "[2]", "result": "> 2000 fold lower affinity than C5mCGG"}]}, {"molecule": "B2", "values": [{"measurement": "binding signal", "setting": "[3]", "result": "~40 fold lower affinity than fully methylated"}]}, {"molecule": "B3", "values": [{"measurement": "binding signal", "setting": "[3]", "result": "~10 fold lower affinity than hemi-methylated"}]}, {"molecule": "B4", "values": [{"measurement": "binding result", "setting": "NEco W31F", "result": "binds"}, {"measurement": "binding result", "setting": "NEco W31S", "result": "binds"}, {"measurement": "binding result", "setting": "NEco S30A", "result": "binds"}, {"measurement": "binding result", "setting": "NEco W31Y", "result": "binds"}, {"measurement": "binding result", "setting": "NEco W31A [4]", "result": "binds"}, {"measurement": "binding signal", "setting": "NEco W31V", "result": "> 50", "unit": "fold decreased vs wt NEco"}, {"measurement": "binding signal", "setting": "NEco S30V", "result": "> 50", "unit": "fold decreased vs wt NEco"}, {"measurement": "binding signal", "setting": "NEco W31I", "result": "> 50", "unit": "fold decreased vs wt NEco"}, {"measurement": "binding signal", "setting": "NEco S30L", "result": "> 50", "unit": "fold decreased vs wt NEco"}, {"measurement": "binding signal", "setting": "NEco W31L", "result": "> 50", "unit": "fold decreased vs wt NEco"}, {"measurement": "binding signal", "setting": "NEco N119A", "result": "~40", "unit": "fold impaired vs wt NEco"}]}, {"molecule": "B5", "values": [{"measurement": "binding signal", "setting": "[2]; T:G mismatch", "result": "~500 fold lower affinity than C5mCGG"}]}, {"molecule": "B6", "values": [{"measurement": "binding signal", "setting": "NEco W31H", "result": "~35 fold lower affinity than fully methylated (same variant)"}, {"measurement": "binding signal", "setting": "[3]", "result": "~230 fold lower affinity than fully methylated"}, {"measurement": "binding result", "setting": "NEco W31A [5]", "result": "binds"}]}]}
